Some targets named below: SAPK2a(T106M)(h) (human, UniProt Q16539 1-360); CDK1/cyclinB(h) (human, UniProt P06493 1-297; P14635 1-433); Fer(h) (human, UniProt P16591 541-822, limits assumed); SAPK2b(h) (human, UniProt Q15759 1-364); ALK(h) (human, UniProt Q9UM73 1058-1620, limits assumed); CaMKIIβ(h) (human, UniProt Q13554 1-666); Yes(h) (human, UniProt P07947 1-543); p70S6K(h) (human, UniProt P23443 1-421); CDK9/cyclin T1(h) (human, UniProt P50750 1-372; O60563 1-726, limits assumed); CK1γ2(h) (human, UniProt P78368 1-415); Aurora-B(h) (human, UniProt Q96GD4 1-344); Hck(h) (human, UniProt P08631 251-518, limits assumed); PKBβ(h) (human, UniProt P31751 1-481, limits assumed); Flt4(h) (human, UniProt P35916 800-1363, limits assumed).

Holding throughout (assay): cell-based or functional assay
Another assay deals with T1, NEK2(h) (human, UniProt P51955 1-445).
T1 sequence (looked up): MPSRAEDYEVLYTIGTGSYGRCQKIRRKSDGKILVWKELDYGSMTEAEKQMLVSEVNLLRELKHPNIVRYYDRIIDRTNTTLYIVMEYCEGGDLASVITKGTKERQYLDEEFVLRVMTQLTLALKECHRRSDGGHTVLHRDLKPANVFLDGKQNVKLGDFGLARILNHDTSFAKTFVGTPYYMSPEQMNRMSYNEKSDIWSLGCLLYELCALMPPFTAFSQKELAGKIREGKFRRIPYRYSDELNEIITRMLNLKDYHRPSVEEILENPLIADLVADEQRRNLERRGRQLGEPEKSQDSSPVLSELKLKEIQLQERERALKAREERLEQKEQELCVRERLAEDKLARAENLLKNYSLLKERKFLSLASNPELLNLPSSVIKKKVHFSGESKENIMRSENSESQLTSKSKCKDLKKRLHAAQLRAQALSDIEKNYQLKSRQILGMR

The next assay deals with T2, Aurora-A(h) (human, UniProt O14965 1-403).
T2 sequence (looked up): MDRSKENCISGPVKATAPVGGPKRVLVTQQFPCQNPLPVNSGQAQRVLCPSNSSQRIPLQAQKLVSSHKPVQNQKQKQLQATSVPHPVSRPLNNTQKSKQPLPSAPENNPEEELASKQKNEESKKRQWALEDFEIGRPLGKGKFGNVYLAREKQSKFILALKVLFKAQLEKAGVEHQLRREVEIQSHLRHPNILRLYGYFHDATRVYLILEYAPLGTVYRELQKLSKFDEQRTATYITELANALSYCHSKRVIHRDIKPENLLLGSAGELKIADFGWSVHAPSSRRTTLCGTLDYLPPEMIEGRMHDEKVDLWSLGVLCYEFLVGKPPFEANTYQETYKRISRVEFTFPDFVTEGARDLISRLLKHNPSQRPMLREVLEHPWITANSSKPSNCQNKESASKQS

The next assay deals with T3, ZAP-70(h) (human, UniProt P43403 1-619).
T3 sequence (looked up): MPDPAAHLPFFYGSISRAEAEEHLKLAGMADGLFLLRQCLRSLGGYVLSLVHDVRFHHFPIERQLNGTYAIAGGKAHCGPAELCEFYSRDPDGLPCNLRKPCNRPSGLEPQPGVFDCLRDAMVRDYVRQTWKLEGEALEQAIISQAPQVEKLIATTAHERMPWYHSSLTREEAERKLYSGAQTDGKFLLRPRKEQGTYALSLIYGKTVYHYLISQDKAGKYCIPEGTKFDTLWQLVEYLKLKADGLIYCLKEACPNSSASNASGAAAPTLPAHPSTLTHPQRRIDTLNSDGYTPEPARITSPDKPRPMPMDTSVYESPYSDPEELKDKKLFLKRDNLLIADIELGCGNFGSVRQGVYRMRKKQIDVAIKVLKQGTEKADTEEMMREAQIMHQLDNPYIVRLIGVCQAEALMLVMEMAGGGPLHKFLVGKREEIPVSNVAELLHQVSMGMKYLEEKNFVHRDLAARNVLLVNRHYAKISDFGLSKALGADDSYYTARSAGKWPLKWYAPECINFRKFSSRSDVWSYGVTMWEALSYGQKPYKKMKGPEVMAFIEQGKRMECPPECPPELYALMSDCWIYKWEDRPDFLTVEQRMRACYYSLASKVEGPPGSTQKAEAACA

Results on two molecules are retold here after patent US20140072613A1 (published 2014).

CK1γ2(h), sequence (P78368 whole entry): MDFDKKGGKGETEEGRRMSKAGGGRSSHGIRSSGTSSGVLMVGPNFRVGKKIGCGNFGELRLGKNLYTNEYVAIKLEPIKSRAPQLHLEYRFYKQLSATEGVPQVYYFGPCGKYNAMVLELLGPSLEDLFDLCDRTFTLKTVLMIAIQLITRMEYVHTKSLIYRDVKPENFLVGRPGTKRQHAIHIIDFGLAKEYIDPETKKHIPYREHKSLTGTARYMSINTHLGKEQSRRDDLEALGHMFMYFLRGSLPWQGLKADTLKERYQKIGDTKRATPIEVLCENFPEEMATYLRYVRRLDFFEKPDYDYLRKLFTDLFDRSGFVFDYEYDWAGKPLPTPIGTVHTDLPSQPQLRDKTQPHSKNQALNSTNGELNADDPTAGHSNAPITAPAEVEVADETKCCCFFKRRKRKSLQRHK
PKBβ(h), sequence (P31751 whole entry): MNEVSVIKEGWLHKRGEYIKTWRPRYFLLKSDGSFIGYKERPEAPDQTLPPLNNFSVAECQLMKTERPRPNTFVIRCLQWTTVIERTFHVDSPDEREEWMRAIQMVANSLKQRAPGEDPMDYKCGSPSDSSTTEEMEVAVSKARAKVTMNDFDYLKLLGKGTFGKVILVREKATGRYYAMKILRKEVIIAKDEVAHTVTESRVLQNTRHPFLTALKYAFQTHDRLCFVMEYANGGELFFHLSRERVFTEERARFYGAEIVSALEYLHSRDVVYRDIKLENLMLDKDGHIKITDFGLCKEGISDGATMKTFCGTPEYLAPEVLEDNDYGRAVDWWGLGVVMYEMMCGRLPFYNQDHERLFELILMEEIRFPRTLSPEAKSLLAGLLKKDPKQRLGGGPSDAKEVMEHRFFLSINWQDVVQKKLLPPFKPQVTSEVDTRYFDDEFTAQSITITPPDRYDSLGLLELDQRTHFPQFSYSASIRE
p70S6K(h), sequence (P23443 1-421): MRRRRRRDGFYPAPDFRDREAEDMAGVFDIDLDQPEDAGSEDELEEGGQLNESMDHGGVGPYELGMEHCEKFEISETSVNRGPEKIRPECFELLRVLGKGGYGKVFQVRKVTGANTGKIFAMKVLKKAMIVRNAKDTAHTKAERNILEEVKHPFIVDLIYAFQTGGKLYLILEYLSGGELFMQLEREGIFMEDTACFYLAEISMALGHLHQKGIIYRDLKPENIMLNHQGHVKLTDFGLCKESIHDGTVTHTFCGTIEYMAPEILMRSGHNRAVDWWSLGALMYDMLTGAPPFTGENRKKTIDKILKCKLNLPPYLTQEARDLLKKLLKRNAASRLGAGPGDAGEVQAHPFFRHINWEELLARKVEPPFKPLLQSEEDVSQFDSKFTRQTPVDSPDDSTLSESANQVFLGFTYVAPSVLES
Yes(h), sequence (P07947 whole entry): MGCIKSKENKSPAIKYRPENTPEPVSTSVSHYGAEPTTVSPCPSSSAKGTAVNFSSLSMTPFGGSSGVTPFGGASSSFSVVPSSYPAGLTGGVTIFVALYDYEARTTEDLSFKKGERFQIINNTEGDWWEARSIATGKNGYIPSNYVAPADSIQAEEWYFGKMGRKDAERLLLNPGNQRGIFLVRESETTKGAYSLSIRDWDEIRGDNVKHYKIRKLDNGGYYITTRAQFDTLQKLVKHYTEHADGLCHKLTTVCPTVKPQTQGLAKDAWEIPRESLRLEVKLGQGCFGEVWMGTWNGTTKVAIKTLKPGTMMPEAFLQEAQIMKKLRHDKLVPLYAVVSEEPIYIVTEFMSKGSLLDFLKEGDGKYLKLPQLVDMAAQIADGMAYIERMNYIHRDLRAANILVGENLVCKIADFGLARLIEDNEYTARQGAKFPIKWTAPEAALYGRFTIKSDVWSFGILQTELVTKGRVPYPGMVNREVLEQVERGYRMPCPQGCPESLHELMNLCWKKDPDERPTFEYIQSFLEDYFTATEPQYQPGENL
Aurora-B(h), sequence (Q96GD4 whole entry): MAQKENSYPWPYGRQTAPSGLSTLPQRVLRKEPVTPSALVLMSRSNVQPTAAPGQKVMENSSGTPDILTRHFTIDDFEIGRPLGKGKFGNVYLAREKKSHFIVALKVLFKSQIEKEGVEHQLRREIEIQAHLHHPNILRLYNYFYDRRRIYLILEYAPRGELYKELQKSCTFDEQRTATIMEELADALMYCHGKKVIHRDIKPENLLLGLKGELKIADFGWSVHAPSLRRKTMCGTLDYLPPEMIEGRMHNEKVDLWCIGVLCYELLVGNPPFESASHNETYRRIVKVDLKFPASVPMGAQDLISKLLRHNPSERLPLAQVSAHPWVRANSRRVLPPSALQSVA
Hck(h), sequence (P08631 251-518 limits assumed): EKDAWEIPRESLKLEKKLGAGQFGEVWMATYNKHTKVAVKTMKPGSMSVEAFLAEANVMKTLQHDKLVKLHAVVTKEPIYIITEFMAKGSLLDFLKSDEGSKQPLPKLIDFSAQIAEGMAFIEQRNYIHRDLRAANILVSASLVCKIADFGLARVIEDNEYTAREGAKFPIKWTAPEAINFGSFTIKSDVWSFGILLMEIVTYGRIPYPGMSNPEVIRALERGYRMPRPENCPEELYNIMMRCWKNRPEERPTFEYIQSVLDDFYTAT
ALK(h), sequence (Q9UM73 1058-1620 limits assumed): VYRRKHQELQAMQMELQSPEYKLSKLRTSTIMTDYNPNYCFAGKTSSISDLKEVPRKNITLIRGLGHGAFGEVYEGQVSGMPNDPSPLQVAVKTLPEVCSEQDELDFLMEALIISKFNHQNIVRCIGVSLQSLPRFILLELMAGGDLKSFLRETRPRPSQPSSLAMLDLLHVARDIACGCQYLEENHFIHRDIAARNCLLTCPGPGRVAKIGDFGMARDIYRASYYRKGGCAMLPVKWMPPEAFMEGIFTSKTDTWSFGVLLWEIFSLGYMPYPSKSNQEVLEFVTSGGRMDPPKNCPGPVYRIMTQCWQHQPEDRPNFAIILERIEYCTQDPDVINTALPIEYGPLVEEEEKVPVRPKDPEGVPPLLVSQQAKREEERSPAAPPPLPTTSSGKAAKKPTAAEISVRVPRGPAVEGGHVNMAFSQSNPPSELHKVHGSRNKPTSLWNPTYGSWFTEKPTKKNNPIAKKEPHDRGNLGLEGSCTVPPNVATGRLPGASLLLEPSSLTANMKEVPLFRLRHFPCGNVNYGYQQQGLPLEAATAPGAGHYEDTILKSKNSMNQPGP
SAPK2a(T106M)(h), sequence (Q16539 whole entry T106M): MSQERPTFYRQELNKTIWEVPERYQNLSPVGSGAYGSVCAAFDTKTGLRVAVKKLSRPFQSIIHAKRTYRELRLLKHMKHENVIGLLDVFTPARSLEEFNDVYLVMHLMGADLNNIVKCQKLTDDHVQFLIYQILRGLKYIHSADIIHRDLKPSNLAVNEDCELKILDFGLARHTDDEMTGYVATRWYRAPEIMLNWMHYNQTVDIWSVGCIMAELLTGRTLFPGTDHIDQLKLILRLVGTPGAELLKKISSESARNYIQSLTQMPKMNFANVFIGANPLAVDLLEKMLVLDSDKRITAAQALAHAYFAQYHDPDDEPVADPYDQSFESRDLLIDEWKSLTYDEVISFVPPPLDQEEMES
CaMKIIβ(h), sequence (Q13554 whole entry): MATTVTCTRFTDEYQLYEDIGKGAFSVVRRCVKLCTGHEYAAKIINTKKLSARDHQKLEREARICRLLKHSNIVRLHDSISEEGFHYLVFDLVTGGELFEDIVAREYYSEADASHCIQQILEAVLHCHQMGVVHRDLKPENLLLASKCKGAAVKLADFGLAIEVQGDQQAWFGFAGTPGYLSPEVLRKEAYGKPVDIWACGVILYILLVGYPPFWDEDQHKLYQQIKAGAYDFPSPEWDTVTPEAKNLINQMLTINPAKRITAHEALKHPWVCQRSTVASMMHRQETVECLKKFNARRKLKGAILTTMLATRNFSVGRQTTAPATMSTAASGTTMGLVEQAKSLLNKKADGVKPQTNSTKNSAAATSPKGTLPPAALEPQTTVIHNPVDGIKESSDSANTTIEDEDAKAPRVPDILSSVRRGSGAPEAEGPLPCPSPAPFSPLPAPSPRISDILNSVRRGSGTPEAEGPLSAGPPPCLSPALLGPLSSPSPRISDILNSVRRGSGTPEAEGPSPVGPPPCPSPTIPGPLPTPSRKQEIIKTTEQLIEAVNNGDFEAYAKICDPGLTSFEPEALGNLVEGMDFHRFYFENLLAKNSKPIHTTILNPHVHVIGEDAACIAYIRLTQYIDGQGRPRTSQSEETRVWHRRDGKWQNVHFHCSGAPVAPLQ
Fer(h), sequence (P16591 541-822 limits assumed): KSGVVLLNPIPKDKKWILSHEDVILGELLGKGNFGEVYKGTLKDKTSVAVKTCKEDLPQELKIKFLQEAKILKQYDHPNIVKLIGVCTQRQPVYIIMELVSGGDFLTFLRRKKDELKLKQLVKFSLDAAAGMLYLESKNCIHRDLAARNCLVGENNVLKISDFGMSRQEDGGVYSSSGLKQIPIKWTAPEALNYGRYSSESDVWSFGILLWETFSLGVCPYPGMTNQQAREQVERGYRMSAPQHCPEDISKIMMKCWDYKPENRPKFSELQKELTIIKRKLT
SAPK2b(h), sequence (Q15759 whole entry): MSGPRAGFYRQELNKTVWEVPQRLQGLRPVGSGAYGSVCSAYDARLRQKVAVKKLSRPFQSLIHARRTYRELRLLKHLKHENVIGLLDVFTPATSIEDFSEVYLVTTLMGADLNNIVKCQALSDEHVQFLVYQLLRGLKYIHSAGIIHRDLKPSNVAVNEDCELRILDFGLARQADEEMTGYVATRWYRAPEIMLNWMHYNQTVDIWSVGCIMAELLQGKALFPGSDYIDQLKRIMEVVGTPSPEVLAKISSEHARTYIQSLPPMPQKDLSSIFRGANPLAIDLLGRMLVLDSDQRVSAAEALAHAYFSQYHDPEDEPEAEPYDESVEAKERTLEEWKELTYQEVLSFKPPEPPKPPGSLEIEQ

For KAFAKLAARLYRKALARQLGVAA [MMI-0400], the “% activity, 100 µM” value with SAPK2a(T106M)(h) was found to be 99%; with CDK1/cyclinB(h), 74%; with Fer(h) it was 108%; with NEK2(h), 61%; in the assay with SAPK2b(h), 82%; with ALK(h), 16%. The “% activity, 100 µM” value stood at 11% with CaMKIIβ(h); 14% in the assay with Yes(h); 33% with p70S6K(h); 235% with CDK9/cyclin T1(h); 119% in the assay with Aurora-A(h); 114% in the assay with CK1γ2(h). Further, the “% activity, 100 µM” value stood at 150% with Aurora-B(h); 72% with Hck(h); 98% with PKBβ(h); 89% with Flt4(h); 33% with ZAP-70(h).

FAKLAARLYRKALARQLGVAA [MMI-0300]: the “% activity, 100 µM” value in the assay with SAPK2a(T106M)(h) was determined as 97%; with CDK1/cyclinB(h), 73%; in the assay with Fer(h), 130%; in the assay with NEK2(h) it was 78%; in the assay with SAPK2b(h), 81%; with ALK(h) it was 19%. Moreover, the “% activity, 100 µM” value with CaMKIIβ(h) worked out at 2%; with Yes(h), 67%; in the assay with p70S6K(h), 35%; with CDK9/cyclin T1(h), 91%; with Aurora-A(h), 92%; with CK1γ2(h), 123%. In addition, the “% activity, 100 µM” value in the assay with Aurora-B(h) came to 128%; in the assay with Hck(h), 72%; in the assay with PKBβ(h), 84%; in the assay with Flt4(h) it was 83%; with ZAP-70(h), 75%.
